Patent publication US20240336672A1 (INSTITUT PASTEUR, published 2024)

B1: Cv2.3194 (recombinant human IgG1) (antibody, V domains shown)
VH: EVQLVESGGGLIQPGGSLRLSCAASGITVTSNYMSWVRQAPGKGLEWVSVIYPGGSTFYADSVKGRFTISRDNSKNTLYLQMNSLRAEDTAVYYCARDLVVYGMDVWGQGTTVTVSS
VL: EIVLTQSPGTLSLSPGERATLSCRASQSVSSSYLAWYQQKPGQAPRLLIYGASSRATGIPGRFSGSGSGTDFTLTISRLEPEDFAIYYCQQGVTFGGGTKVEIKR
B2: Cv2.3235 (recombinant human IgG1) (antibody, V domains shown)
VH: EVQLVESGGGLIQPGGSLRLSCAASGFTVSRNYMSWVRQAPGKGLEWVSVIYSGGSTFYADSVKGRFTISRDNSKNTLYLQMNSLRAEDTAVYYCARDGDYYGMDVWGQGTTVTVSS
VL: DIQMTQSPSFLSASVGDRVTITCRASQGISSFLAWYQQKPGKAPKLLIYGASTLQSGVTSRFSGSGSGTEFTLTISSLQPEDFATYYCQRLDSYPPITFGQGTRLEIKR
B3: Cv2.5213 (recombinant human IgG1) (antibody, V domains shown)
VH: EVQLVESGGGLIQPGGSLRLSCAASGFTVSSNYMSWVRQAPGKGLEWVSLIYSGGSTYYADSVKGRFTISRDNSKNTLYLQMNSLRAEDTAVYYCARDLNYYGMDVWGQGATVTVSS
VL: DIQMTQSPSSLSASVGDRVTITCRASQGISSYLAWYQQKPGKAPKLLIYAASTLQSGVPSRFSGSGSGTDFTLTISSLQPEDFATYYCQQLDSYSPFTFGPGTKVDIKR
B4: Cv2.1169 (recombinant human IgG1) (antibody)
heavy: QVQLVQSGPEVKKPGTSVKVSCKASGFTFTTSAVQWVRQARGQRLEWIGWIVVGSGNTNYAQKFQERVTITRDMSTTTAYMELSSLRSEDTAVYYCAAPYCSGGTCLDGFDIWGQGTMVTVSSASTKGPSVFPLAPSSKSTSGGTAALGCLVKDYFPEPVTVSWNSGALTSGVHTFPAVLQSSGLYSLSSVVTVPSSSLGTQTYICNVNHKPSNTKVDKKVEPKSCDKTHTCPPCPAPELLGGPSVFLFPPKPKDTLMISRTPEVTCVVVDVSHEDPEVKFNWYVDGVEVHNAKTKPREEQYNSTYRVVSVLTVLHQDWLNGKEYKCKVSNKALPAPIEKTISKAKQPREPQVYTLPPSRDELTKNQVSLTCLVKGFYPSDIAVEWESNGQPENNYKTTPPVLDSDGSFFLYSKLTVDKSRWQQGNVFSCSVMHEALHNHYTQKSLSLSPGK
light: not shown
notes: also called Cv2.1169 IgG
B5: Cv2.1353 (recombinant human IgG1) (antibody, V domains shown)
VH: EVQLVESGGGLVQPGGSLRLSCAASGVTVSSNYMNWVRQAPGKGLEWVSVIYSGGSTFYADSVKGRFIISRDNSKNTLYLQMNSLKTEDTAVYYCARDLGPMGFDIWGQGTMVTVSS
VL: DIQMTQSPSFLSASVGDRVTITCRASQGISSYLAWYQQKPGKAPKLLIYAASTLQSGVPSRFSGSGSGTEFTLTISSLQPEDFATYYCQQLNSDPPVTFGPGTKVDIKR

What was measured:
[1] = target: T1, CoV-OC43 Spike ectodomain (OC43-CoV, UniProt P36334 14-1263); assay: ELISA, coated antigen; also: test concentration or dose not given here
T1 chain: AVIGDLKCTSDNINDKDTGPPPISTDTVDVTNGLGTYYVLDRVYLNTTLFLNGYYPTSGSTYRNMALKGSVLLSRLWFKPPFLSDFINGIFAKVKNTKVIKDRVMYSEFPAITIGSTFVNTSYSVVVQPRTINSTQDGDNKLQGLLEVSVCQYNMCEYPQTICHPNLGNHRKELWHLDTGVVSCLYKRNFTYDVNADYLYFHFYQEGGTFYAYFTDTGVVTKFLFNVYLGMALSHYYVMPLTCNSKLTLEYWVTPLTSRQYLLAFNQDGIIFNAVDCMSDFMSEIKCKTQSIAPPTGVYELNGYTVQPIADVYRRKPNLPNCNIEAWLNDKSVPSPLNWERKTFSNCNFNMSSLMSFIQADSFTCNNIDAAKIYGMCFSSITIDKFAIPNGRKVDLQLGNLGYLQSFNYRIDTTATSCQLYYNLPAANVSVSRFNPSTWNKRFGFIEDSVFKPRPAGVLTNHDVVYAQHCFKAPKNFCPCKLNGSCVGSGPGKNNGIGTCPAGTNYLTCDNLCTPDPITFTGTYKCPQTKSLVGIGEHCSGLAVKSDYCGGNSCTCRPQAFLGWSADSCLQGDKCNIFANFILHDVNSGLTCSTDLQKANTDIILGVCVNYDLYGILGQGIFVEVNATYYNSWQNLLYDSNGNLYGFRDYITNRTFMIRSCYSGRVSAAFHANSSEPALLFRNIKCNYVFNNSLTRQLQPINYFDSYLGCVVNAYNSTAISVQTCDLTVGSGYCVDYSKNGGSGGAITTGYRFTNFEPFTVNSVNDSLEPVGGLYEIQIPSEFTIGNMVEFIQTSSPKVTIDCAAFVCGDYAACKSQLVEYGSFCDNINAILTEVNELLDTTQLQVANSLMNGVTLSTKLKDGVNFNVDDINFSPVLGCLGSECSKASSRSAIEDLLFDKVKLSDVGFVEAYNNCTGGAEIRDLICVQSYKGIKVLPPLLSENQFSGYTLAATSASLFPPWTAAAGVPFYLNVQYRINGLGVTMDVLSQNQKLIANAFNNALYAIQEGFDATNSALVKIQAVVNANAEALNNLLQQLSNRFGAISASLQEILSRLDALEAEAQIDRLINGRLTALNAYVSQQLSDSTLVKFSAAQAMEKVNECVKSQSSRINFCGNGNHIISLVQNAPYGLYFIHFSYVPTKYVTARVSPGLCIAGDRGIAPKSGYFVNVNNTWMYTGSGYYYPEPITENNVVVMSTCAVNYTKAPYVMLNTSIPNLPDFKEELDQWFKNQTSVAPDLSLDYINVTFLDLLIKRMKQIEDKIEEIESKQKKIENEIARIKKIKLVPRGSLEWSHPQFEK

[2] = target: T2, CoV-NL63 Spike ectodomain (NL63-CoV, UniProt Q6Q1S2 19-1291); assay: ELISA, coated antigen; also: test concentration or dose not given here
T2 sequence: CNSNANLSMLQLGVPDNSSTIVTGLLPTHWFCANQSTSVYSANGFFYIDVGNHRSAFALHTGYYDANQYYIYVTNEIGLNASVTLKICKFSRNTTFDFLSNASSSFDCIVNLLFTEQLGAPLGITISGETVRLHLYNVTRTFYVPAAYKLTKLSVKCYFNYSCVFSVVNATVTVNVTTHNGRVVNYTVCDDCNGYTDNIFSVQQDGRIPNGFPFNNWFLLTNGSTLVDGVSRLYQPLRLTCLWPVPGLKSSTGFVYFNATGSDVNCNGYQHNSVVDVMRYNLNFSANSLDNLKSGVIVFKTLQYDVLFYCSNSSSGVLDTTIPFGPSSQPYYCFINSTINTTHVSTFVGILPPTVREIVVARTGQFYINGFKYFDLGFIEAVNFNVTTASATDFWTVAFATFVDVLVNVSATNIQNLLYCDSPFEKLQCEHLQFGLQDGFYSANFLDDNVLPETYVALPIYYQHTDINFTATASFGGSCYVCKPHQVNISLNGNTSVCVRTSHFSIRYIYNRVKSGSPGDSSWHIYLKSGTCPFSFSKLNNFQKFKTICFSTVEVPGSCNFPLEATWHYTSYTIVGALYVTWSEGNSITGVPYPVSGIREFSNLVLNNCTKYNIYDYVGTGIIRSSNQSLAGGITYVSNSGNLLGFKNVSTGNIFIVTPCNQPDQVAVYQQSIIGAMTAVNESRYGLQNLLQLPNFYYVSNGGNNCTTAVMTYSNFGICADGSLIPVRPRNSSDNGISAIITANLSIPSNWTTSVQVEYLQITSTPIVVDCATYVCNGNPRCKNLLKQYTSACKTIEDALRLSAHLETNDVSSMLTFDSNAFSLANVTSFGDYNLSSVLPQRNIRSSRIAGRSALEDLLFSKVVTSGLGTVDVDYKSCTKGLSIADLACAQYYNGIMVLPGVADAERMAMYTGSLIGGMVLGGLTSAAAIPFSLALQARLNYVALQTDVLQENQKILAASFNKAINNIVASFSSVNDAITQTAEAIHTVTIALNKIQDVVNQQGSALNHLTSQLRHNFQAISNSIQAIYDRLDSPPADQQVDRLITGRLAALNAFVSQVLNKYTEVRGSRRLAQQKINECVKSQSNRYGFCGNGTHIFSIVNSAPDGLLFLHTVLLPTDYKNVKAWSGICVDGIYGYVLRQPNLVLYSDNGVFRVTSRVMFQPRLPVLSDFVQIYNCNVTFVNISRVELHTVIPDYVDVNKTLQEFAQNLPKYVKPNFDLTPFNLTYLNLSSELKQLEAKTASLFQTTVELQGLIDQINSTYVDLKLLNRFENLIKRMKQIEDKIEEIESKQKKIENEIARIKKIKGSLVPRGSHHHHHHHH

Binder	ELISA OD [1] [OD]	ELISA OD [2] [OD]
B1	0.8	0.1
B2	0.3	0.2
B3	0.7	0.1
B4	0.1	0.1
B5	0.8	0.1
